Experimental data from patent publication US20250215499A1 (CHINESE UNIVERSITY OF HONG KONG, published 2025).

Assays:
BECN1 = biological target: T1, BECN1 (UniProt Q14457 1-450, limits assumed); assay: co-immunoprecipitation
T1 construct: The ubiquitination co-IPs used endogenous protein from T-REx-293 and KYSE150 cells; also called Beclin 1; Beclin 1/BECN1

SQSTM1/p62 = SQSTM1/p62 (UniProt Q13501 2-440, limits assumed); assay: co-immunoprecipitation

T1 sequence (Q14457 whole entry): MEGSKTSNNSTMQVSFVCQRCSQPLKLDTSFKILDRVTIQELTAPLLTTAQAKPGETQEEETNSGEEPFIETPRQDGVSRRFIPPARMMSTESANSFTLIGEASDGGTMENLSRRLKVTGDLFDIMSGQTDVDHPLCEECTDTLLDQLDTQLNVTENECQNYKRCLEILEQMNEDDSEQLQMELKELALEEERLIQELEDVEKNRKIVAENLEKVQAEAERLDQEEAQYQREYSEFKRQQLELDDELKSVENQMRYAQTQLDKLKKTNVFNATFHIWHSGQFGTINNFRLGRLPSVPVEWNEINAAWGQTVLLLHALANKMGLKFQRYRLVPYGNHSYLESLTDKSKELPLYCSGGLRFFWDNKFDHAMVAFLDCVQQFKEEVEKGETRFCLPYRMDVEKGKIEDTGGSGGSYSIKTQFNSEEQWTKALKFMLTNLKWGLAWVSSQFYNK

B1: SP0495 (small protein of KIAA0495), encoded by KIAA0495-ORF2 (other)
chain: MCLLSSSAASDLAATSLTAHPCHPPLPRQPQPQLILSGSPSIGTVPPPAVGHTSLLPVNPPAISTTTSDLSAREDATPSASTGHLSVFPAFQVKIPAVPSEQTSQSFSEASHRVLPGGGPRCSRDFGAGVAGHLGLGIFGVGFGSPALLQSVVDENSCCLLYVVEDQLCDVEQAFRAEHLGQHQSGSGTGCRHCPQRPAAL
notes: The 1-18 transmembrane/signal peptide domain is only a bioinformatic prediction and was not removed; also called KIAA0495-ORF2/SP0495; KIAA0495-ORF2 protein
binding result (BECN1): no binding | binding result (SQSTM1/p62): no binding
